Drawing on a protein production outcome set (Wang et al. 2014), this text covers protein production for 19 sequences.

This data set is described as follows: label from the status in PepcDB records.
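Further: failed if final PepcDB status was selected cloned or expressed and not failed if soluble or beyond.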

On to “MGRTVVVLGGGISGLAASYHLSRAPCPPKVVLVESSERLGGWIRSVRGPNGAIFELGPRGIRPAGALGARTLLLVSELGLDSEVLPVRGDHPAAQNRFLYVGGALHALPTGLRGLLRPSPPFSKPLFWAGLRELTKPRGKEPDETVHSFAQRRLGPEVASLAMDSLCRGVFAGNSRELSIRSCFPSLFQAEQTHRSILLGLLLGAGRTPQPDSALIRQALAERWSQWSLRGGLEMLPQALETHLTSRGVSVLRGQPVCGLSLQAEGRWKVSLRDSSLEADHVISAIPASVLSELLPAEAAPLARALSAITAVSVAVVNLQYQGAHLPVQGFGHLVPSSEDPGVLGIVYDSVAFPEQDGSPPGLRVTVMLGGSWLQTLEASGCVLSQELFQQRAQEAAATQLGLKEMPSHCLVHLHKNCIPQYTLGHWQKLESARQFLTAHRLPLTLAGASYEGVAVNDCIESGRQAAVSVLGTEPNS”, for which the protein production result is “failed”.

For “MGSCMKWDYGEMEDFSVSASGLFITNEGNFQYSNATLSYYDPATCEVENEVFYRANGFKLGDVAQSMVIRDGIGWIVVNNSHVIFAIDINTFKEVGRITGFTSPRYIHFLSDEKAYVTQIWDYRIFIINPKTYEITGYIECPDMDMESGSTEQMVQYGKYVYVNCWSYQNRILKIDTETDKVVDELTIGIQPTSLVMDKYNKMWTITDGGYEGSPYGYEAPSLYRIDAETFTVEKQFKFKLGDWPSEVQLNGTRDTLYWINNDIWRMPVEADRVPVRPFLEFRDTKYYGLTVNPNNGEVYVADAIDYQQQGIVYRYSPQGKLIDEFYVGIIPGAFCWKLEHHHHHH”, the protein production result is recorded as “failed”.

With “MGSDVHVWKTWFITSSDRGFTWSTPAPLVNDDILPRGPVKNKLLLASNGAWIAPGSIESPERWRAFVDRSSDEGKHWSISFVPLEPDNAISGTNVALWDGIKKGRLWECCLENLLRWDGVIQPTLWESSPGHIHMLLRSTRGAIFRSDSIDYGATWSVARATSLPNNNSGIDLVSMQDGTLILALNPVNGNWGKRYPLSLIASQDNGESWLPLLDLESDHGEYSYPAIISEGGIVHITYTWNRKLEHHHHHH”, the protein production entry was “not failed”.

In the case of “MGSEDHGAQNPSCKIMTFRPTMEEFKDFNKYVAYIESQGAHRAGLAKIIPPKEWKPRQTYDDIDDVVIPAPIQQVVTGQSGLFTQYNIQKKAMTVGEYRRLANSEKYCTPRHQDFDDLERKYWKNLTFVSPIYGADISGSLYDDDVAQWNIGSLRTILDMVERECGTIIEGVNTPYLYFGMWKTTFAWHTEDMDLYSINYLHFGEPKSWYAIPPEHGKRLERLAIGFFPGSSQGCDAFLRHKMTLISPIILKKYGIPFSRITQEAGEFMITFPYGYHAGFNHGFNCAESTNFATLRWIDYGKVATQCTCRKDMVKISMDVFVRILQPERYELWKQGKDLTVLDHTRPTALTSPELSSWSASRASLKAKLLRRSHRKRSQPKKPKPEDPKFPGEGTAGAALLEEAGGSVKEEAGPEVDPEEEEEEPQPLPHGREAEGAEEDGRGKLRPTKAKSERKKKSFGLLPPQLPPPPAHFPSEEALWLPSPLEPPVLGPGPAAMEESPLPAPLNVVPPEVPSEELEAKPRPIIPMLYVVPRPGKAAFNQEHVSCQQAFEHFAQKGPTWKEPVSPMELTGPEDGAASSGAGRMETKARAGEGQAPSTFSKLKMEIKKSRRHPLGRPPTRSPLSVVKQEASSDEEASPFSGEEDVSDPDALRPLLSLQWKNRAASFQAERKFNAAAARTEPYCAICTLFYPYCQALQTEKEAPIASLGEGCPATLPSKSRQKTRPLIPEMCFTSGGENTEPLPANSYIGDDGTSPLIACGKCCLQVHASCYGIRPELVNEGWTCSRCAAHAWTAECCLCNLRGGALQMTTDRRWIHVICAIAVPEARFLNVIERHPVDISAIPEQRWKLKCVYCRKRMKKVSGACIQCSYEHCSTSFHVTCAHAAGVLMEPDDWPYVVSITCLKHKSGGHAVQLLRAVSLGQVVITKNRNGLYYRCRVIGAASQTCYEVNFDDGSYSDNLYPESITSRDCVQLGPPSEGELVELRWTDGNLYKAKFISSVTSHIYQVEFEDGSQLTVKRGDIFTLEEELPKRVRSRLSLSTGAPQEPAFSGEEAKAAKRPRVGTPLATEDSGRSQDYVAFVESLLQVQGRPGAPF”, the protein production result was “failed”.

“MGSELYLMFFAAITLLAILNPFGNLTQFLAMSDGLPLMLRKKLFRTILYTAFTIVLVFLLSGPLFMNYIFRVSLDDLRVSGGLVLIIMAIKNLLFSTKIATKDFSSYQDMDDKEILRQSLIPMAFPMLVGPGTLASVIVIAEDGGLDVALGGVMIAFIFMFILFHFAATIEKIVGKLILHVFSRIAQVFIVAMGFKMIIVGLKDIFNL”: the protein production entry is given as “failed”.

“MGSFHRRTFSYDKLPNEPIRLSVLKLDGSSFDVYVLTSATVGDLKVAIETAFSHVPKKGPSKISWSHVWGHFCLCFGGQKLITDTDCIGNYGMKDGDEVRFKNHVSGNAVLSKGYSRKSKQKNLERVLPKDGDEVLNRIEEIDDSWDDLERGGLVMYKDDDMETSSNESNRSCLSTVHGCCFAFGLKELLGFGNDRAYYSLRDTWRDD”: the protein production entry was “failed”.

Regarding “MGSGPTGLRGTGRQLLALERDVLVLSVAMFAFSLGFQMTSRYIPRYMSVLGAGAVAIGLFGAFGNLISALYPYPGGAVSDRIGSRTALTLFGLLSTAGFLIWLFADAFGTVVVPPVGTEREVFGREVVIGWLEPAVVPVGIFLGLVFAQAWKSFGLGATFAIVKQSVSPDQLATGFASTETFRRTAFLLGPLLAAGILAVFTFEVGFRIVLAVAAAFGLVATLAQHFLYDASEDTLGKSFAGVSAVVDDLRSMPSELRPLLVADTLVRFGNGMVYVFFIIVVTEFLEVGVSLPVVGRLSPDAYFGVLLAIEMLVALLIMLPVSRLSRRVGLKPVVAVGFAVYAIFPAVLIYAPDNAAVLALLFAVSGLRFAGLPAHKALIVGPAESGSGGRVTGSYYLVRNVVVIPSAAIGGAIYAVSPETAFLTATAIGLAGLVVFLAFGREFEAAVAG”, the protein production result is reported as “failed”.

Take “MGSMLLNGAKMKYGNLSLKCMVQNQKALNFYLSQGFEIVSQVDDELGGYYYMSFVAQT”: the protein production entry is reported as “failed”.

In the case of “MGSQGGIVSIDAKIDASVMIGKDAVVFPDANIAERACIAEKVCIGNAVRIGKHAMIDHGASIGDRSNIGERSRIYQDSFIGENAVIAARACIGEKVYIGNFVSLAKDSIIDDGVNIGERSSIGERTRIRQGSFIRKGCVIRQRSVIAKRAYIDEGVYIGNVVRILEHHHHHH”, the protein production entry is given as “failed”.

Consider “MGSSHHHHHHSSGENLYFQGHMKTADLCDQFLDELQVCELPFQSYGGKRMFSGPIATVDVFEDNVLVREALETVPPGTVLVVDGKGSRRVALLGDRLAQIACERGLAGVIIHGCIRDSAEIGAMPIGVMAIGTCPVKSKKEGKGARDVVLEFGGVRWEPGAYVYADADGVVVANKDLLAKNG”, for which the protein production entry is listed as “not failed”.

With “MGSTHHHHHHSSGRENLYFQGHMEEEMQRHIKLTPSQTTPVVLVVGDPGRVDKVKMLCDSYVDLAYNREYKSVECTYKGQKFLCVSHGVGSAGCAICFEELMNNGAKVIIRAGSCGSLQPTQMKRGDICICNAAVREDRVSHLMIYSDFPAVADFEVYDTLNKVAQELEVPVFNGISLSSDLYYPHKIIPTRLEDYSKANVAVVEMEVATLMVMGTLRKVKTGGIFIVDGCPLKWDEGDFDNNLVPEKLENMIKISLETCARLAKKY”, the protein production entry is given as “not failed”.

Take “MGSVQLSGSGLVASLPPNHSFSHKTKLNKPNSYFFRSKHNAARTKTVRAISTAPASQPPAADEPDEPPAVDFAFVHSVLLPDGTPDVHWRRANGGQKLRDIMLDSNIELYGPYSKPLSNCAGVGTCATCMVEIVNGKELLNPRTDIEKEKLKRKPKNWRLACQTNVGNPDSTGLVVIQQLPEWKAHEWNIPKNIPNDDDLETST”: the protein production entry is “failed”.

Regarding “MGTEVSTSPTSLIDQTVVPGDVVLDLSNMTNQTIKLGSGLRQDNEVISVMRAGKLRYSKPNKYWVESSHKRYVPRPEDHVLGIVVDCKGENYWIDIKGPQLALLPVLAFEGANRRNYPKFEVSTLLYTRVVKTNTGMNPELSCVDESGKAAGFGPLKDGFMFETSTGLSRMLLSSPTCPVLEALGKKLSFETAFGLNGRCWVHAAAPRIVIIVANALMNSETLSGTQQRIMVEKLLEKISD”, the protein production entry is given as “failed”.

As to “MGTLPARRHIPPWVKVPEDLKDPEVFQVQTRLLKAIFGPDGSRIPYIEQVSKAMLELKALESSDLTEVVVYGSYLYKLRTKWMLQSMAEWHRQRQERGMLKLAEAMNALELGPWMK”, the protein production result is “failed”.

“MGTVSKALSLLALFNHGRLEMGLSELTRLSGMNKATVYRMMTELQAAGFVEQMNGDRAYRLGPEVLRLAALREAAVPLLSVSRDVLRRLCDETGETSHMSIQRNGQLTTLTHAYSSHHGTRVAMEDAEILSLHATGSGLAFLAFSSEEVVEHALSAPLIKHTPQTETDPARLRQALAEAQQSGVAESVGGFEADVHSHAAPIFGADQRPIGALAVAAPVSRMTAELKSRVRAALKEAALDLTQRTGGFCPPGYPGAA”: the protein production result is on record as “failed”.

For “MGVHIDSVVFSRAGALLTLKDEAEISEIRVYSESEEIASQEIGKNKDNVFVSFNWDPEARYRFEVITGSGASGTIEAYAPSKPALKKEYTIELEDVTPGDIEKTSTNVEGALKFSPDSEYLAIGTNGGSLKLIKVATGEKVWEKQLVKGIADARIADIEFSEDGKRLFVGEESPDAFLYCFDLEGTEIWKYGAGKELGSDLKYMPAMKKIKLDSEGNIYVAASRACGYIGEKYKYLARIYSFDPEGNLRWKFPESEYMDSGVTWIDATPDGKYAVFGTTCFTETEKWREGTVHALNGNTGQEHWSYKIQPVEPFFDYSAIWYSTQITPDGEKLITMTSDGRAFLFNNSRIIETGTPEITWQQNISTPIVVSGVPIYGSANYAYIVNDTLIFSIGSTFSKDKNKDAPFEHPSGNSLFAYDYDGNLLWKWRVDGYAGECAVNDRYLVIPLAQNLVTEDRSVHGVYVFDASKSGGASSRLIQTYNTEGITVSADISPDGRYIAALEAPSRLDDGTVLGEYKVHILTLEHHHHHH”, the protein production result was “not failed”.

As to “MGVKVATSSTFHQWVAHPIVHHSSSLSQTLASSAVSSPSRRRIIGNDGRSSLSCRSVMQSQRLNPSSPFGTSSTNLRHSKSCELWESTKRPKTQLIRRAFSANVDPFSEEEFAKKMQELTLKFQVSNEEEDNESDTRIDDYTRKMDIVGSHNNFRSDSMEPPWPEMVQMSNIERKANSVDLPLSLRIIKRKLQMEEGVLNQVGESACCSVKKAFSSMVFMIRELQSFTLHMRELLLFEDLQGILHRVRKEMQASFVWLFQQVFSATPTLMVSVMILLANFTVYSIESNSALAAAVSPPTTLSFSFETTAEISETQETNQKFDSSMVKTFSVSSPYGKTSFVGGGGGNNIPPPVQSGTDGDGSDQFRKSQFSSSSLGATSADSDVSVSGQEEIRLWNSILEETAKMETLDHETMKGMVSPVEARLEAEESMDYFKTELLYQTGLSQEPGNVLLLANYAQFLYLIIHDYDRAEKYFKRAAKAEPADAEALNKYATFLWRARNDIWRAEETYLEAISADPTNSVYSANYAHFLWNTGGDETCFPLDAPSQQNNTT”, the protein production result is given as “failed”.

Turning to “MGVVERAIAPSVLAALADTPVVVVNGARQVGKTTLVARLDYPGSSEVVSLDDVANRDAARDDPRAFVSRPVDTLVIDEAQLEPGLFRAIKAEVDRDRRPGRFLLTGSARLLSAPDMADALVGRVEIIELWPFSQGERAGIADGFVDALFTAPRELIHGSDMRRADLVDRIATGGFPDIVARSPSRRRAWFDNYLTTATQSVIREISPIERLAEMPRVLRLCAARTGAELNVSALANDLSIPARTTAGYLALLEAAFLIHRVPAWSTNLSRKVIRRPKLVVSDSGLACHLLGVTGATLDRPGRPLGPLLETFVANEIRKQLTWSTERPSLWHFRDRGGAEVDLVLEHPDGRVCGIEVKATSTPRAEDLRGLRYLAERLDDRFQFGVLLTAAPEATPFGPTLAALPVSTLWAG”, the protein production entry is on record as “failed”.

With “MGVYPPSEDSFLIIEYASCSGKAIEIGCGTGIVSICFLKRGCDIEAVDISDLAVECAKDNASRNGLTLKVYRSDLFSGVSGTYDTILFNAPYIPVEGEDASWSGGRNLEVVSRFLGQAREHLSASGQIYIVLSDLTDNEGMFRMMGYDYFIIKKISFEFEAIVLYKLTLKALEHHHHHH”, the protein production entry is “failed”.
